Laboratory results reported in paper PMC12279946.
Numbering of substitutions follows the chain as printed.

Tests used:
[1] = molecular target: T1, SprT-BR (UniProt Q9H040 28-245); test: NMR 1H,15N-HSQC; 100 uM protein, 200 uM DNA; no ubiquitin; line broadening in ZBD-BR; NMR: 20 mM HEPES/KOH pH 7.2, 150 mM KCl, 10% D2O, 308 K; 100 uM protein, 2x dsDNA, 5x Ub1; conditions: protein: recombinant; blunt
T1 sequence: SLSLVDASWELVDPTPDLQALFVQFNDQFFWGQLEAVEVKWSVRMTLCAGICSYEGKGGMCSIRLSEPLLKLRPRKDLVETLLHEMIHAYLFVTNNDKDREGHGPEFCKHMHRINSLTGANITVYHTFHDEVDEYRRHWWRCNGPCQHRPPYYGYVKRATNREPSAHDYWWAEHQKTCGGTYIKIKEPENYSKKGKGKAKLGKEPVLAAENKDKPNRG

[2] = molecular target: T2, SprT-BR-L99S (UniProt Q9H040 28-245, L99S); test: NMR 1H,15N-HSQC; 100 uM protein, 200 uM DNA; no ubiquitin; line broadening comparable to WT; NMR: 20 mM HEPES/KOH pH 7.2, 150 mM KCl, 10% D2O, 308 K; 100 uM protein, 2x dsDNA, 5x Ub1; conditions: protein: recombinant; blunt
T2 sequence: T1 sequence with L72S

[3] = molecular target: SprT-BR;mono-ubiquitin (Ub1) (Homo sapiens?;, UniProt Q9H040;P0CG48 28-245;1-76, |); test: NMR 1H,15N-HSQC; 200 uM DNA + 500 uM Ub1; synergistic severe line broadening; NMR: 20 mM HEPES/KOH pH 7.2, 150 mM KCl, 10% D2O, 308 K; 100 uM protein, 2x dsDNA, 5x Ub1; conditions: protein: recombinant;recombinant; copies: 1;1; blunt

Measured: binding result

B1: 15-bp dsDNA (NMR) (dsDNA)
DNA 1: CCTTGCTAGGACATC
DNA 2: GATGTCCTAGCAAGG
binds: all assays above
